This series concerns the molecule itself. The series can be described thus: SEC; Superdex 75 column, 20 mM Tris-Cl (pH 7.5), 150 mM NaCl; profile compared with protein size standards (44 and 17 kDa).

Results on one protein are retold here after PMC7324553, “Activity-Based Protein Profiling Reveals That Cephalosporins Selectively Active on Non-replicating Mycobacterium tuberculosis Bind Multiple Protein Families and Spare Peptidoglycan Transpeptidases” (Frontiers in Microbiology, 2020).

By stoichiometry N is commonly meant the number of molecules, sites or subunits per partner or assembly.

B1: Rv1738 (uncharacterized protein Rv1738; potential hibernation factor) (natural protein)
chain: MCGDQSDHVLQHWTVDISIDEHEGLTRAKARLRWREKELVGVGLARLNPADRNVPEIGDELSVARALSDLGKRMLKVSTHDIEAVTHQPARLLY
Take B1: the “stoichiometry N” value was determined as 2.
